B1: Mothers against decapentaplegic homolog 4 (Homo sapiens), Q13485 (parent)
chain: MDNMSITNTPTSNDACLSIVHSLMCHRQGGESETFAKRAIESLVKKLKEKKDELDSLITAITTNGAHPSKCVTIQRTLDGRLQVAGRKGFPHVIYARLWRWPDLHKNELKHVKYCQYAFDLKCDSVCVNPYHYERVVSPGIDLSGLTLQSNAPSSMMVKDEYVHDFEGQPSLSTEGHSIQTIQHPPSNRASTETYSTPALLAPSESNATSTANFPNIPVASTSQPASILGGSHSEGLLQIASGPQPGQQQNGFTGQPATYHHNSTTTWTGSRTAPYTPNLPHHQNGHLQHHPPMPPHPGHYWPVHNELAFQPPISNHPAPEYWCSIAYFEMDVQVGETFKVPSSCPIVTVDGYVDPSGGDRFCLGQLSNVHRTEAIERARLHIGKGVQLECKGEGDVWVRCLSDHAVFVQSYYLDREAGRAPGDAVHKIYPSAYIKVFDLRQCHRQMQQQAATAQAAAAAQAAAVAGNIPGPGSVGGIAPAISLSAAAGIGVDDLRRLCILRMSFVKGWGPDYPRQSIKETPCWIEIHLHRALQLLDEVLHTMPIADPQPLD

Variants of: B1
Settings: with smad3_human SMAD3, P84022

| Variant | effect of a mutation on the interaction |
| --- | --- |
| G386D | disrupting interaction strength |

Variants of: B1
Settings: with smad1_human SMAD1, Q15797
smad1_human SMAD1, Q15797, sequence (Q15797 whole entry): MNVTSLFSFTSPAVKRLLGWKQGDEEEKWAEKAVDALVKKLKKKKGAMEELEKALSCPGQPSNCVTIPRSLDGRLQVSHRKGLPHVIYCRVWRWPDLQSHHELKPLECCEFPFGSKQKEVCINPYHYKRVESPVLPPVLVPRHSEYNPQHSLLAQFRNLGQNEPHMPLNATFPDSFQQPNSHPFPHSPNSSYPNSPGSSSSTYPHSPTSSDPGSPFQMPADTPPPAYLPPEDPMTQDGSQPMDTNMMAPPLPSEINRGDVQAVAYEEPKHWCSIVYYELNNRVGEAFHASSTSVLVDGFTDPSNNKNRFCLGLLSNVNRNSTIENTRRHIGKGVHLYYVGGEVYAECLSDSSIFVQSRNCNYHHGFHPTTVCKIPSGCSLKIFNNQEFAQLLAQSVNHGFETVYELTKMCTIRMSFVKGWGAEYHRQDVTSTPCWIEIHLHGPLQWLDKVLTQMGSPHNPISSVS

| Variant | effect of a mutation on the interaction |
| --- | --- |
| G386D | disrupting interaction strength |

Variants of: B1
Settings: with axin2_human AXIN2, Q9Y2T1
axin2_human AXIN2, Q9Y2T1, sequence (Q9Y2T1 whole entry): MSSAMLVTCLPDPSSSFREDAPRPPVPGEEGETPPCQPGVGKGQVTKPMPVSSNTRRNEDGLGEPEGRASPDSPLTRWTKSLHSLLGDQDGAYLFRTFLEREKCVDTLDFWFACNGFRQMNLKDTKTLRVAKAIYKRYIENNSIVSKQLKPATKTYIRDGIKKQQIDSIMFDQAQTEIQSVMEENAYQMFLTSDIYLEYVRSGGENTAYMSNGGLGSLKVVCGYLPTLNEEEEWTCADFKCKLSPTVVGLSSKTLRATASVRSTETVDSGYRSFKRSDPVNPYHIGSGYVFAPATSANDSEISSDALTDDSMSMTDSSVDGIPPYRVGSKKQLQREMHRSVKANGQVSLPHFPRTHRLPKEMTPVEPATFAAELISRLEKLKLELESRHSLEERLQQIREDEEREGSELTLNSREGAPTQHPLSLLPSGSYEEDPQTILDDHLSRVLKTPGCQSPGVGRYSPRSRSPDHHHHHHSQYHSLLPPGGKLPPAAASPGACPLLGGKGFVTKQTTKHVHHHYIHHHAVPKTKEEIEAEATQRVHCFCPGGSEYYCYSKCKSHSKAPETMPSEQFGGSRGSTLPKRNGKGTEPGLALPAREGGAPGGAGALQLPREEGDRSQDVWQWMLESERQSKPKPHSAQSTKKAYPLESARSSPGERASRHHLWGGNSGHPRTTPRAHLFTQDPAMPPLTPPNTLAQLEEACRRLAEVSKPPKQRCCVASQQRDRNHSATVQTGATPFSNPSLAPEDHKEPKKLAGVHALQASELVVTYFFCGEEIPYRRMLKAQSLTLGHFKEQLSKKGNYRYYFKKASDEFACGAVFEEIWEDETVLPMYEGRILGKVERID

| Variant | effect of a mutation on the interaction |
| --- | --- |
| G386D | causing an interaction |

Variants of: B1
Settings: with gsk3b_human GSK3B

| Variant | effect of a mutation on the interaction |
| --- | --- |
| G386D | causing an interaction |

Variants of: B1
Settings: with agap2_human AGAP2, Q99490

| Variant | effect of a mutation on the interaction |
| --- | --- |
| G386D | with no effect |

Variants of: B1
Settings: with ajuba_human AJUBA

| Variant | effect of a mutation on the interaction |
| --- | --- |
| G386D | with no effect |

Variants of: B1
Settings: with akt1_human AKT1, P31749

| Variant | effect of a mutation on the interaction |
| --- | --- |
| G386D | with no effect |

Variants of: B1
Settings: with akts1_human AKT1S1, Q96B36

| Variant | effect of a mutation on the interaction |
| --- | --- |
| G386D | with no effect |

Variants of: B1
Settings: with alk_human ALK

| Variant | effect of a mutation on the interaction |
| --- | --- |
| G386D | with no effect |

Variants of: B1
Settings: with aph1a_human APH1A

| Variant | effect of a mutation on the interaction |
| --- | --- |
| G386D | with no effect |

Variants of: B1
Settings: with arnt_human ARNT

| Variant | effect of a mutation on the interaction |
| --- | --- |
| G386D | with no effect |

Variants of: B1
Settings: with bakor_human ATG14, Q6ZNE5

| Variant | effect of a mutation on the interaction |
| --- | --- |
| G386D | with no effect |

Variants of: B1
Settings: with atpb_human ATP5F1B

| Variant | effect of a mutation on the interaction |
| --- | --- |
| G386D | with no effect |

Variants of: B1
Settings: with aurkb_human AURKB

| Variant | effect of a mutation on the interaction |
| --- | --- |
| G386D | with no effect |

Variants of: B1
Settings: with axin2_human AXIN2, Q9Y2T1
Remark: another data set of the same source

| Variant | effect of a mutation on the interaction |
| --- | --- |
| G386D | with no effect |

Variants of: B1
Settings: with ufo_human AXL

| Variant | effect of a mutation on the interaction |
| --- | --- |
| G386D | with no effect |

Variants of: B1
Settings: with za2g_human AZGP1, P25311

| Variant | effect of a mutation on the interaction |
| --- | --- |
| G386D | with no effect |

Variants of: B1
Settings: with b2mg_human B2M

| Variant | effect of a mutation on the interaction |
| --- | --- |
| G386D | with no effect |

Variants of: B1
Settings: with bap1_human BAP1, Q92560
bap1_human BAP1, Q92560, sequence (Q92560 whole entry): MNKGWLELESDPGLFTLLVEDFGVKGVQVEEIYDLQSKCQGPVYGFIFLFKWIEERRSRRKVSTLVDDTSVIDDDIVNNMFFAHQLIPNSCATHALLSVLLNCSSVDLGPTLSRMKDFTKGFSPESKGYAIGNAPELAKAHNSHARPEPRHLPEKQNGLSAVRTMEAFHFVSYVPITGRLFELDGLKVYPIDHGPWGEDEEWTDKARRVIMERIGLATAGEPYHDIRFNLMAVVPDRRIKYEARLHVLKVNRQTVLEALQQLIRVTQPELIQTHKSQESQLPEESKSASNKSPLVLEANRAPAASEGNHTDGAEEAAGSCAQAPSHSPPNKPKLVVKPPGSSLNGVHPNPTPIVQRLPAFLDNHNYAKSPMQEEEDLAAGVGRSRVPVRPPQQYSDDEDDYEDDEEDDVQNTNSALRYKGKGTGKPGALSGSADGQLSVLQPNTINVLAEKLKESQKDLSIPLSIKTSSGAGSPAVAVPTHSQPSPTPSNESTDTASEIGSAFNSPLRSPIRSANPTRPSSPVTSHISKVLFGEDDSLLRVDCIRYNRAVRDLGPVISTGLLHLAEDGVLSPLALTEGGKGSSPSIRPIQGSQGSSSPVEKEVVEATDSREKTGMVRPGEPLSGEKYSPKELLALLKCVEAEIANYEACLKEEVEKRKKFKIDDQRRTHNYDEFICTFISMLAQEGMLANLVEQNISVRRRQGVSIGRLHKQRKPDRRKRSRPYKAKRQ

| Variant | effect of a mutation on the interaction |
| --- | --- |
| G386D | with no effect |

Variants of: B1
Settings: with becn1_human BECN1, Q14457

| Variant | effect of a mutation on the interaction |
| --- | --- |
| G386D | with no effect |

Variants of: B1
Settings: with birc2_human BIRC2, Q13490

| Variant | effect of a mutation on the interaction |
| --- | --- |
| G386D | with no effect |

Variants of: B1
Settings: with braf_human BRAF

| Variant | effect of a mutation on the interaction |
| --- | --- |
| G386D | with no effect |

Variants of: B1
Settings: with baba2_human BABAM2, Q9NXR7
baba2_human BABAM2, Q9NXR7, sequence (Q9NXR7 whole entry): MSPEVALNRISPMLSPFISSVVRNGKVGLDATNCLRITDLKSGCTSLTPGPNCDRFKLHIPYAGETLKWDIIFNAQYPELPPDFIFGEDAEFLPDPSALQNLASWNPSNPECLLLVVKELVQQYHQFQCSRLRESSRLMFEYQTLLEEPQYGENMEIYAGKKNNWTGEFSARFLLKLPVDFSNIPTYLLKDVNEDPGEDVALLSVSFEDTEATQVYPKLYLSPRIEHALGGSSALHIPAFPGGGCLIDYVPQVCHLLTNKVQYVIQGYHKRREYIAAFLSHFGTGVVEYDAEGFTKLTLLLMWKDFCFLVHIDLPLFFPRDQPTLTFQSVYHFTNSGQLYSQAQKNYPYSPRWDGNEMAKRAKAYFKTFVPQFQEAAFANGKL

| Variant | effect of a mutation on the interaction |
| --- | --- |
| G386D | with no effect |

Variants of: B1
Settings: with btg1_human BTG1, P62324

| Variant | effect of a mutation on the interaction |
| --- | --- |
| G386D | with no effect |

Variants of: B1
Settings: with btk_human BTK

| Variant | effect of a mutation on the interaction |
| --- | --- |
| G386D | with no effect |

Variants of: B1
Settings: with cbl_human CBL

| Variant | effect of a mutation on the interaction |
| --- | --- |
| G386D | with no effect |

Variants of: B1
Settings: with cblb_human CBLB

| Variant | effect of a mutation on the interaction |
| --- | --- |
| G386D | with no effect |

Variants of: B1
Settings: with ccnd1_human CCND1, P24385

| Variant | effect of a mutation on the interaction |
| --- | --- |
| G386D | with no effect |

Variants of: B1
Settings: with ccnd2_human CCND2, P30279

| Variant | effect of a mutation on the interaction |
| --- | --- |
| G386D | with no effect |

Variants of: B1
Settings: with ccnd3_human CCND3, P30281

| Variant | effect of a mutation on the interaction |
| --- | --- |
| G386D | with no effect |

Variants of: B1
Settings: with cd44_human CD44, P16070
cd44_human CD44, P16070, sequence (P16070 whole entry): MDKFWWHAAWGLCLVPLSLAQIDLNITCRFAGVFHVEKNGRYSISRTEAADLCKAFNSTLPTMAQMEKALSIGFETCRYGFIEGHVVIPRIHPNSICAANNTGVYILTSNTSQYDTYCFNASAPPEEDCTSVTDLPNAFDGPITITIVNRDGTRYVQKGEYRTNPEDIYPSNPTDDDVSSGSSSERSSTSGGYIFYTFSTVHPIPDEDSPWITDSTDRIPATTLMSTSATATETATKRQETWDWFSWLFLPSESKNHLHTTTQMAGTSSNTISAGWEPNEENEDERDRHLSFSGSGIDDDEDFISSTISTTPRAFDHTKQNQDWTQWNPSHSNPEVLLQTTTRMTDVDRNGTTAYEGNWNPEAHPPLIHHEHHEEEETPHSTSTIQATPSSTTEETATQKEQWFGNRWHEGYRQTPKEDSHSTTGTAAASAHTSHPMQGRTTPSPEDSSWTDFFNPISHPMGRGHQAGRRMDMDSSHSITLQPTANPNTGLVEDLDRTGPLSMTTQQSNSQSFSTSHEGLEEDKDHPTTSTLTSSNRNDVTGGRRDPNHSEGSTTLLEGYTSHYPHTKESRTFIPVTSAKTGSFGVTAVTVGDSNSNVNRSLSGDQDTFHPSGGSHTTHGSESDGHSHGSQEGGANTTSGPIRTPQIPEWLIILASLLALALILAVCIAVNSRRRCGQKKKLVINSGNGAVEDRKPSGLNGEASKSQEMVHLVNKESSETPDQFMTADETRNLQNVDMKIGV

| Variant | effect of a mutation on the interaction |
| --- | --- |
| G386D | with no effect |

Variants of: B1
Settings: with cd79b_human CD79B

| Variant | effect of a mutation on the interaction |
| --- | --- |
| G386D | with no effect |

Variants of: B1
Settings: with cdc27_human CDC27, P30260

| Variant | effect of a mutation on the interaction |
| --- | --- |
| G386D | with no effect |

Variants of: B1
Settings: with cdk4_human CDK4, P11802

| Variant | effect of a mutation on the interaction |
| --- | --- |
| G386D | with no effect |

Variants of: B1
Settings: with cdk6_human CDK6, Q00534

| Variant | effect of a mutation on the interaction |
| --- | --- |
| G386D | with no effect |

Variants of: B1
Settings: with cdn2b_human CDKN2B

| Variant | effect of a mutation on the interaction |
| --- | --- |
| G386D | with no effect |

Variants of: B1
Settings: with cdn2c_human CDKN2C

| Variant | effect of a mutation on the interaction |
| --- | --- |
| G386D | with no effect |

Variants of: B1
Settings: with cebpa_human CEBPA

| Variant | effect of a mutation on the interaction |
| --- | --- |
| G386D | with no effect |

Variants of: B1
Settings: with chd1l_human CHD1L

| Variant | effect of a mutation on the interaction |
| --- | --- |
| G386D | with no effect |

Variants of: B1
Settings: with chd2_human CHD2, O14647

| Variant | effect of a mutation on the interaction |
| --- | --- |
| G386D | with no effect |

Variants of: B1
Settings: with ch3l1_human CHI3L1, P36222

| Variant | effect of a mutation on the interaction |
| --- | --- |
| G386D | with no effect |

Variants of: B1
Settings: with csf1r_human CSF1R

| Variant | effect of a mutation on the interaction |
| --- | --- |
| G386D | with no effect |

Variants of: B1
Settings: with ctna1_human CTNNA1, P35221

| Variant | effect of a mutation on the interaction |
| --- | --- |
| G386D | with no effect |

Variants of: B1
Settings: with ctnb1_human CTNNB1, P35222

| Variant | effect of a mutation on the interaction |
| --- | --- |
| G386D | with no effect |

Variants of: B1
Settings: with cul3_human CUL3, Q13618

| Variant | effect of a mutation on the interaction |
| --- | --- |
| G386D | with no effect |

Variants of: B1
Settings: with dicer_human DICER1, Q9UPY3

| Variant | effect of a mutation on the interaction |
| --- | --- |
| G386D | with no effect |

Variants of: B1
Settings: with dll3_human DLL3, Q9NYJ7

| Variant | effect of a mutation on the interaction |
| --- | --- |
| G386D | with no effect |

Variants of: B1
Settings: with duox2_human DUOX2, Q9NRD8

| Variant | effect of a mutation on the interaction |
| --- | --- |
| G386D | with no effect |

Variants of: B1
Settings: with e2f1_human E2F1, Q01094
e2f1_human E2F1, Q01094, sequence (Q01094 whole entry): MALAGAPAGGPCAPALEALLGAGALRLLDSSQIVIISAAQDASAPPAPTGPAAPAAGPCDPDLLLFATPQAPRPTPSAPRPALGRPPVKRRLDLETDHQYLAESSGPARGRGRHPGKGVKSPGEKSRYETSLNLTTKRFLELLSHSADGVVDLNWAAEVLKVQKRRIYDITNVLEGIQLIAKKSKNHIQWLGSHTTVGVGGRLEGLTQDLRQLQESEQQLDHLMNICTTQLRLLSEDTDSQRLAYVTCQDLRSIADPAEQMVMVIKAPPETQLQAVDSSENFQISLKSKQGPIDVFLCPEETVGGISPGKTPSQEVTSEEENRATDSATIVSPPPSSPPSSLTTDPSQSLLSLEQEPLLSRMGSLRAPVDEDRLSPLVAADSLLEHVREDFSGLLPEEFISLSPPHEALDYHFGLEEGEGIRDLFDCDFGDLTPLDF

| Variant | effect of a mutation on the interaction |
| --- | --- |
| G386D | with no effect |

Variants of: B1
Settings: with e2f2_human E2F2, Q14209
e2f2_human E2F2, Q14209, sequence (Q14209 whole entry): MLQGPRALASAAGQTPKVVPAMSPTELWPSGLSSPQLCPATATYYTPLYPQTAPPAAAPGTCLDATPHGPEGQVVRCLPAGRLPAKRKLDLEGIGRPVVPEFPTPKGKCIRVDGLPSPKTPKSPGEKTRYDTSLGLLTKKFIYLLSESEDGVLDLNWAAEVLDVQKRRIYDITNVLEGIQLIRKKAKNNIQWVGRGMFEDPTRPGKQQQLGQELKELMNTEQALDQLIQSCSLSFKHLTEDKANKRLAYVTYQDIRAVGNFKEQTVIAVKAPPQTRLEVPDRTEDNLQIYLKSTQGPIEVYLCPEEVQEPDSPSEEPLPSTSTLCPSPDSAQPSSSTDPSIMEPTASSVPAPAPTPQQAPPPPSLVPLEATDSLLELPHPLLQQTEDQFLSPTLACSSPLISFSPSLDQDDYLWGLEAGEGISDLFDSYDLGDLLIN

| Variant | effect of a mutation on the interaction |
| --- | --- |
| G386D | with no effect |

Variants of: B1
Settings: with e2f4_human E2F4, Q16254

| Variant | effect of a mutation on the interaction |
| --- | --- |
| G386D | with no effect |

Variants of: B1
Settings: with e2f5_human E2F5, Q15329

| Variant | effect of a mutation on the interaction |
| --- | --- |
| G386D | with no effect |

Variants of: B1
Settings: with e2f8_human E2F8, A0AVK6

| Variant | effect of a mutation on the interaction |
| --- | --- |
| G386D | with no effect |

Variants of: B1
Settings: with if4e_human EIF4E

| Variant | effect of a mutation on the interaction |
| --- | --- |
| G386D | with no effect |

Variants of: B1
Settings: with epha2_human EPHA2, P29317

| Variant | effect of a mutation on the interaction |
| --- | --- |
| G386D | with no effect |

Variants of: B1
Settings: with epha7_human EPHA7, Q15375
epha7_human EPHA7, Q15375, sequence (Q15375 whole entry, looked up): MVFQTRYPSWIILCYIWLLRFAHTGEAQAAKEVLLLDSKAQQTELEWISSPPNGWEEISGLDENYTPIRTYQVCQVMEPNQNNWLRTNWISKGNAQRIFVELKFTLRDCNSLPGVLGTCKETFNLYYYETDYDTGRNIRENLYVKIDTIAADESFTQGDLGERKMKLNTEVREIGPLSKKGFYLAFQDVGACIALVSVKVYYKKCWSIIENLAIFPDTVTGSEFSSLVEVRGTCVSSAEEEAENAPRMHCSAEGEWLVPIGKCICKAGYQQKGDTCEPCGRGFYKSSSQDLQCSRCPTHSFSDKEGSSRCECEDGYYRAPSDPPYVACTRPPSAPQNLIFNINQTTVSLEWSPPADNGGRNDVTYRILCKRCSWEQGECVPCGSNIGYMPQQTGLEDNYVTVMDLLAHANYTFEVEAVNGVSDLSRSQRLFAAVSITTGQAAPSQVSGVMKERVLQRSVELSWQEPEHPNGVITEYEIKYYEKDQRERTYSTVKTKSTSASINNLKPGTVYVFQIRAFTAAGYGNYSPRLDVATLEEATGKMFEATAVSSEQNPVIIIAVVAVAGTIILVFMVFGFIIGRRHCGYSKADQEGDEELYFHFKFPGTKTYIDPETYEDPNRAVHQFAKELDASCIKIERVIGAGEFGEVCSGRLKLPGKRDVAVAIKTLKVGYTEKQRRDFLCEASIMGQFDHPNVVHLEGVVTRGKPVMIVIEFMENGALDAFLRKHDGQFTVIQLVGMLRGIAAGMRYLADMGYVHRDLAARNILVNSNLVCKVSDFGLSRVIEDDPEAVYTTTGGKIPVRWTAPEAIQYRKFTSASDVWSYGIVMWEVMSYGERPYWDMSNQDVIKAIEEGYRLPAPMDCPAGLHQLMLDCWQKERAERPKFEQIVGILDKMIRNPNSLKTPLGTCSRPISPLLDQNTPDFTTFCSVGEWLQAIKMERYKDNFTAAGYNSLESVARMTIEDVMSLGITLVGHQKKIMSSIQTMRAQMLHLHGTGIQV

| Variant | effect of a mutation on the interaction |
| --- | --- |
| G386D | with no effect |

Variants of: B1
Settings: with ephb1_human EPHB1, P54762

| Variant | effect of a mutation on the interaction |
| --- | --- |
| G386D | with no effect |

Variants of: B1
Settings: with erbb3_human ERBB3, P21860

| Variant | effect of a mutation on the interaction |
| --- | --- |
| G386D | with no effect |

Variants of: B1
Settings: with erbb4_human ERBB4, Q15303

| Variant | effect of a mutation on the interaction |
| --- | --- |
| G386D | with no effect |

Variants of: B1
Settings: with esr1_human ESR1, P03372

| Variant | effect of a mutation on the interaction |
| --- | --- |
| G386D | with no effect |
